Experiments:
[1] = target: T1, Srr2-BR (untagged recombinant binding region of Srr2) (Streptococcus agalactiae (strain COH1)); experiment: SPR; BIAcore T100; fibrinogen amine-coupled to a CM5 chip; Srr1-BR or Srr2-BR 1.25–160 μM flowed at 10 μl/min; KD from equilibrium responses; conditions: both partners purified
T1 construct: I took it to be this one; also called untagged Srr2-BR; recombinant Srr2; source: E. coli, purified (nickel-nitrilotriacetic acid or anti-FLAG M2-agarose)

[2] = target: T2, Srr1-BR (untagged recombinant binding region of Srr1) (Streptococcus agalactiae (strain NCTC …)); experiment: as above; conditions: both partners purified
T2 construct: I took it to be this one; also called untagged Srr1-BR; recombinant Srr1; source: E. coli, purified (nickel-nitrilotriacetic acid or anti-FLAG M2-agarose)
T2 sequence (P02671 36-866): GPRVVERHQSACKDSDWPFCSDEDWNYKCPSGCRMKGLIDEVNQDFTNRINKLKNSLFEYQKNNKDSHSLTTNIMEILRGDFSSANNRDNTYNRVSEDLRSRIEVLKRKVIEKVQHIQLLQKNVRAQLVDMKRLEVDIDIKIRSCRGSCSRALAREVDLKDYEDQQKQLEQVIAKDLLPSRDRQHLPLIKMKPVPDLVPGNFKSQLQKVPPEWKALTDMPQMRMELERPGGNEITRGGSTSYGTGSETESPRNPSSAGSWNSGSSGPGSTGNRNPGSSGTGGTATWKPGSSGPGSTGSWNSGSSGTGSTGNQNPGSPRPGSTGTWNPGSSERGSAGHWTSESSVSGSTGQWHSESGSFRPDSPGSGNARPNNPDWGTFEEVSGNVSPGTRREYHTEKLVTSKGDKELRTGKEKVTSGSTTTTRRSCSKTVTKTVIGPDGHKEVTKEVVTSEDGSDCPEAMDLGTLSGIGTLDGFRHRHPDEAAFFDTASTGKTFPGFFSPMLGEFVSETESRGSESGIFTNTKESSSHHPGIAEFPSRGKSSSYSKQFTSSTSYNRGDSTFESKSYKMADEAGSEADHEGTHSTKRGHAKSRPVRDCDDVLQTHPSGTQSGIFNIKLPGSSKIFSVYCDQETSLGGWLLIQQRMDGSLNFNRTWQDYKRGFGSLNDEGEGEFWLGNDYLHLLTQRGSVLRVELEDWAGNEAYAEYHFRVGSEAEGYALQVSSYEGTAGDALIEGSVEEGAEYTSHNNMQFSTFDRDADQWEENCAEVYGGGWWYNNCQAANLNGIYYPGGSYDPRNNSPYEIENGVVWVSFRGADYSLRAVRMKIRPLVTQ

T1 sequence (P02671 36-866): as above

B1: purified human fibrinogen (complex)
chain 1: ADSGEGDFLAEGGGVRGPRVVERHQSACKDSDWPFCSDEDWNYKCPSGCRMKGLIDEVNQDFTNRINKLKNSLFEYQKNNKDSHSLTTNIMEILRGDFSSANNRDNTYNRVSEDLRSRIEVLKRKVIEKVQHIQLLQKNVRAQLVDMKRLEVDIDIKIRSCRGSCSRALAREVDLKDYEDQQKQLEQVIAKDLLPSRDRQHLPLIKMKPVPDLVPGNFKSQLQKVPPEWKALTDMPQMRMELERPGGNEITRGGSTSYGTGSETESPRNPSSAGSWNSGSSGPGSTGNRNPGSSGTGGTATWKPGSSGPGSTGSWNSGSSGTGSTGNQNPGSPRPGSTGTWNPGSSERGSAGHWTSESSVSGSTGQWHSESGSFRPDSPGSGNARPNNPDWGTFEEVSGNVSPGTRREYHTEKLVTSKGDKELRTGKEKVTSGSTTTTRRSCSKTVTKTVIGPDGHKEVTKEVVTSEDGSDCPEAMDLGTLSGIGTLDGFRHRHPDEAAFFDTASTGKTFPGFFSPMLGEFVSETESRGSESGIFTNTKESSSHHPGIAEFPSRGKSSSYSKQFTSSTSYNRGDSTFESKSYKMADEAGSEADHEGTHSTKRGHAKSRPV
chain 2: QGVNDNEEGFFSARGHRPLDKKREEAPSLRPAPPPISGGGYRARPAKAAATQKKVERKAPDAGGCLHADPDLGVLCPTGCQLQEALLQQERPIRNSVDELNNNVEAVSQTSSSSFQYMYLLKDLWQKRQKQVKDNENVVNEYSSELEKHQLYIDETVNSNIPTNLRVLRSILENLRSKIQKLESDVSAQMEYCRTPCTVSCNIPVVSGKECEEIIRKGGETSEMYLIQPDSSVKPYRVYCDMNTENGGWTVIQNRQDGSVDFGRKWDPYKQGFGNVATNTDGKNYCGLPGEYWLGNDKISQLTRMGPTELLIEMEDWKGDKVKAHYGGFTVQNEANKYQISVNKYRGTAGNALMDGASQLMGENRTMTIHNGMFFSTYDRDNDGWLTSDPRKQCSKEDGGGWWYNRCHAANPNGRYYWGGQYTWDMAKHGTDDGVVWMNWKGSWYSMRKMSMKIRPFFPQQ
chain 3: YVATRDNCCILDERFGSYCPTTCGIADFLSTYQTKVDKDLQSLEDILHQVENKTSEVKQLIKAIQLTYNPDESSKPNMIDAATLKSRKMLEEIMKYEASILTHDSSIRYLQEIYNSNNQKIVNLKEKVAQLEAQCQEPCKDTVQIHDITGKDCQDIANKGAKQSGLYFIKPLKANQQFLVYCEIDGSGNGWTVFQKRLDGSVDFKKNWIQYKEGFGHLSPTGTTEFWLGNEKIHLISTQSAIPYALRVELEDWNGRTSTADYAMFKVGPEADKYRLTYAYFAGGDAGDAFDGFDFGDDPSDKFFTSHNGMQFSTWDNDNDKFEGNCAEQDGSGWWMNKCHAGHLNGVYYQGGTYSKASTPNGYDNGIIWATWKTRWYSMKKTTMKIIPFNRLTIGEGQQHHLGGAKQAGDV
modifications: plasma-derived disulfide-linked hexamer (AαBβγ)2, N-glycosylated; Aα taken as the 610-residue circulating form (paper's Aα(1-610)), γ as the major γA form with the C-terminus printed in the text …
[1]
  Kd: 3.7 µM
[2]
  Kd: 21 µM
